The record followed here is article PMC4499147.

In the assay the target is RNF168 (UniProt Q8IYW5). As to the kind of experiment: anti-HA co-IP, FLAG blot. Conditions: reference: wild-type HA-LSD1.

Turning to LSD1 (from UniProt O60341) S131A, the “binding against the reference” value (sites S131) was “weaker”.

For LSD1 (from UniProt O60341) S137A, the “binding against the reference” value (sites S137) was “weaker”.
